Results: PMC3354962 (Advances in bioscience and biotechnology (Print), 2011)

Key:
proteases = experiment: Protease digestion, summary over the panel of proteases; type: in vitro ADME; details: of the 9 proteases tested; 1 µU enzyme, 1 hr, 37°C, SDS-PAGE
Trypsin = experiment: Protease digestion, SDS-PAGE: trypsin; type: in vitro ADME; details: 1 µU trypsin, 1 hr, 37°C, Coomassie, Figure 1

Substance | Number of proteases the material was resistant to (proteases) | Appearance of peptide bands on SDS-PAGE after digestion by trypsin (Trypsin)
Griffithsin [GRFT] | 8 | 
PSC-RANTES |  | reduced intensity or density rather than disappearing
